The target of experiment [1] is T1, Myristoyl-CoA:protein N-myristoyltransferase from Saccharomyces cerevisiae (Saccharomyces cerevisiae, UniProt P14743).
T1 sequence (P14743 1-455): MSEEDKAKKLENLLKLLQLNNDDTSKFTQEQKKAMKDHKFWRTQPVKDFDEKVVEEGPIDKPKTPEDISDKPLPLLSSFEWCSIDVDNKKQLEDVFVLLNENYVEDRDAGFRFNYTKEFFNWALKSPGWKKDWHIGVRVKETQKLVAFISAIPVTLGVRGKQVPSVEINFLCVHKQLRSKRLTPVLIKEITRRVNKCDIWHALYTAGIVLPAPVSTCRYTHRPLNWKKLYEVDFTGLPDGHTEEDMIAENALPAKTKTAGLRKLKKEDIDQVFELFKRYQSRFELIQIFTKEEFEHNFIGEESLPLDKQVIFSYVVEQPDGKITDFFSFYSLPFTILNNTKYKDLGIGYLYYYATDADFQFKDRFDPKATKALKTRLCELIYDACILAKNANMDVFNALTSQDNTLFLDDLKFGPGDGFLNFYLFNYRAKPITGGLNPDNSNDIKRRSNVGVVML
Conditions: cited from earlier work; for Km: octapeptide substrate.

Experiment [2] addresses T1, Myristoyl-CoA:protein N-myristoyltransferase from Saccharomyces cerevisiae. Description: kinetic measurements of substrate specificity of yeast NMT with octapeptides. It is filed as biochemical. Conditions: ratio of the Km, Rocque et al. 1993 data. From the text:
The enzyme Myristoyl-CoA:protein N-myristoyltransferase from Saccharomyces cerevisiae has been subject to extensive kinetic measurements to examine its substrate specificity (Towler, D. A., et al., Annu. Rev. Biochem. 57:69-99 (1988)). […] However, the relation of the affinities, certifying which substrates are binding better than others, should remain constant.

Where [3] appears, read: earlier publication, Towler et al. 1988.

Like-named read-outs stand apart in the source and are kept apart here.

Regarding “GNAAAARR [octapeptide substrate of yeast NMT, derived from cAMP-dependent protein kinase]”, the figures for the Michaelis-Menten constant (Km) in experiment [1] (Rocque et al. 1993) and in experiment [1] (setting [3]) were 31 µM and 60 µM, respectively. Besides, the “higher affinity (lower Km) than GSSKSKPK” value in experiment [2] is 3 fold.
In the case of “GPAAAARR [octapeptide, mutation of […] with proline on position 2]”, the “ability to become myristoylated” value in experiment [1] (mutation of octapeptide GNAAAARR to GPAAAARR, Towler et al. 1988) is “loss of the ability to become myristoylated”.
With “GSSKSKPK [octapeptide substrate of yeast NMT]”, the Km was 105 µM in experiment [1] (Rocque et al. 1993) and 40 µM in experiment [1] (setting [3]).

As usually defined, the Km is the concentration of substrate that gives half-maximal velocity.

The values above are taken from patent US20030148383A1, “Methods for identifying proteins with N-terminal N-myristoylation” (Boehringer Ingelheim International GmbH, priority 2001, published 2003).
